Source: patent US11466286B2, “Methods and compositions for conferring and/or enhancing herbicide tolerance using protoporphyrinogen oxidase or variant thereof” (FarmHannong Co., Ltd., priority 2016, dated 2022)

B1: CyPPO10 R89A + F360L: CyPPO10 (SEQ ID NO: 2) PPO variant (protein)
chain: MIEVDVAIVGGGLSGLSVAWRLQRSAPHYSGVLLEASDRLGGNITTQAAEGFVWELGPNSFAPTPALLQLIAEVGLHSELIRGDRHLPAYIYWRGELYPLEPTRPLALATSNLLSPWGKVRAALGALGFVPPYLGSGDESVDSFFRRHLGQEVAERLVAPFVSGVYAGDPQQLSAAAAFRRIAQLEKLGGSLIAGALRLRRQQPPQPKPPAQVQMRPGELGSFREGLAALPRAIAQQLKAPLHLQTPVEAITPEPKGGYLLRSGEQTWHARSVVLATPAYQTAELVAPFQPAIARALATIPYPTVACVVLAYPAGLGRSVRPGFGVLVPRGQGIRTLGTIWSSCLFPQRTPAGWQVFTSLIGGATDPDLASLREEAIVEQVQQDLTRLLDLPAAKARLLGMKVWRRAIPQYIVGYPQQWQQVTHALTQTPGLFLCSNYAEGVALGDRVEHGNRTAAAVAAYLAGGQS
modifications: Synthetic CyPPO10
B2: CyPPO10 V165S + F360L: CyPPO10 (SEQ ID NO: 2) PPO variant (protein)
chain: MIEVDVAIVGGGLSGLSVAWRLQRSAPHYSGVLLEASDRLGGNITTQAAEGFVWELGPNSFAPTPALLQLIAEVGLHSELIRGDRHLPRYIYWRGELYPLEPTRPLALATSNLLSPWGKVRAALGALGFVPPYLGSGDESVDSFFRRHLGQEVAERLVAPFVSGSYAGDPQQLSAAAAFRRIAQLEKLGGSLIAGALRLRRQQPPQPKPPAQVQMRPGELGSFREGLAALPRAIAQQLKAPLHLQTPVEAITPEPKGGYLLRSGEQTWHARSVVLATPAYQTAELVAPFQPAIARALATIPYPTVACVVLAYPAGLGRSVRPGFGVLVPRGQGIRTLGTIWSSCLFPQRTPAGWQVFTSLIGGATDPDLASLREEAIVEQVQQDLTRLLDLPAAKARLLGMKVWRRAIPQYIVGYPQQWQQVTHALTQTPGLFLCSNYAEGVALGDRVEHGNRTAAAVAAYLAGGQS
modifications: Synthetic CyPPO10
B3: CyPPO10 V165S + F360M: CyPPO10 (SEQ ID NO: 2) PPO variant (protein)
chain: MIEVDVAIVGGGLSGLSVAWRLQRSAPHYSGVLLEASDRLGGNITTQAAEGFVWELGPNSFAPTPALLQLIAEVGLHSELIRGDRHLPRYIYWRGELYPLEPTRPLALATSNLLSPWGKVRAALGALGFVPPYLGSGDESVDSFFRRHLGQEVAERLVAPFVSGSYAGDPQQLSAAAAFRRIAQLEKLGGSLIAGALRLRRQQPPQPKPPAQVQMRPGELGSFREGLAALPRAIAQQLKAPLHLQTPVEAITPEPKGGYLLRSGEQTWHARSVVLATPAYQTAELVAPFQPAIARALATIPYPTVACVVLAYPAGLGRSVRPGFGVLVPRGQGIRTLGTIWSSCLFPQRTPAGWQVFTSMIGGATDPDLASLREEAIVEQVQQDLTRLLDLPAAKARLLGMKVWRRAIPQYIVGYPQQWQQVTHALTQTPGLFLCSNYAEGVALGDRVEHGNRTAAAVAAYLAGGQS
modifications: Synthetic CyPPO10
B4: CyPPO10 V165S + F360I: CyPPO10 (SEQ ID NO: 2) PPO variant (protein)
chain: MIEVDVAIVGGGLSGLSVAWRLQRSAPHYSGVLLEASDRLGGNITTQAAEGFVWELGPNSFAPTPALLQLIAEVGLHSELIRGDRHLPRYIYWRGELYPLEPTRPLALATSNLLSPWGKVRAALGALGFVPPYLGSGDESVDSFFRRHLGQEVAERLVAPFVSGSYAGDPQQLSAAAAFRRIAQLEKLGGSLIAGALRLRRQQPPQPKPPAQVQMRPGELGSFREGLAALPRAIAQQLKAPLHLQTPVEAITPEPKGGYLLRSGEQTWHARSVVLATPAYQTAELVAPFQPAIARALATIPYPTVACVVLAYPAGLGRSVRPGFGVLVPRGQGIRTLGTIWSSCLFPQRTPAGWQVFTSIIGGATDPDLASLREEAIVEQVQQDLTRLLDLPAAKARLLGMKVWRRAIPQYIVGYPQQWQQVTHALTQTPGLFLCSNYAEGVALGDRVEHGNRTAAAVAAYLAGGQS
modifications: Synthetic CyPPO10

The molecules below were run on CyPPO10 (assay: PPO enzyme activity and IC50 by herbicides, CyPPO10 wild type and variants (MBP-PPO fusion)). Details: PPO enzyme activity of CyPPO10 protein, wild type = 100.
Type: biochemical, Thermosynechococcus elongatus BP-1
Experimental: The enzyme activities of PPO protein and PPO protein variants were examined, and inhibition assay by PPO-inhibiting herbicides was conducted. It was confirmed that the PPO protein has low water-solubility, but in case of being expressed as a fusion protein with MBP (maltose binding protein) (MBP-PPO), the PPO protein is able to be stably expressed as water-soluble form. Therefore, the wild type and variant proteins which were expressed in the form of fusion protein with MBP were used in the present test (refer to FIG. 4).
In order to express wild type genes and mutant genes of CyPPO10 and CyPPO13 (refer to Example 1 and Example 4), those genes were introduced to pMAL-c2X vector (refer to FIG. 5) respectively, and then cloned to BL21 (DE3) E. coli (CodonPlus).
The enzyme activity of the purified wild type protein and variant proteins of CyPPO10 and CyPPO13 was measured by the following process.
At first, a substrate of PPO protein, Protoporphyrinogen IX was synthesized. This process was performed in the space where nitrogen gas is streamed. 6 mg of protoporphyrin IX was dissolved in 20% (v/v) EtOH 20 ml, and stirred under dark condition for 30 minutes. The obtained protoporphyrinogen IX solution was put into a 15 ml screw tube in an amount of 800 and flushed with nitrogen gas for 5 minutes. To this, 1 g of sodium amalgam was added and vigorous shaking was performed for 2 minutes. The lid was open to exhaust hydrogen gas in the tube. Thereafter, the lid was closed and incubated for 3 minutes. The […] was filtered using syringe and cellulose membrane filter. To 600 μl of the obtained […], 2M MOPS [3-(N-morpholino)propanesulfonic acid] was added in an amount of approximately 300 thereby adjusting pH to 8.0. To determine the enzyme activity of PPO protein, a reaction mixture was prepared with the following composition (based on 10 ml): 50 mM Tris-Cl (pH 8.0); 50 mM NaCl; 0.04% (v/v) Tween 20; 40 mM glucose (0.072 g); 5 units glucose oxidase (16.6 mg); and 10 units catalase (1 μl).
Two hundred microliters (200 μl) of reaction mixture containing a purified PPO protein were placed in 96 well plates, and preincubated for 30 min at room temperature to reduce the oxygen concentration by the reaction of glucose oxidase-catalase. The mineral oil was layered and then the reaction was initiated by adding the substrate, […], to a final concentration of 50 μM. The reaction proceeded at room temperature for 30 min and the fluorescence of protoporphyrin IX was measured using Microplate reader (Sense, Hidex) (excitation: 405 nm; emission: 633 nm). To calculate the PPO enzyme activity, protoporphyrinogen IX solution was kept open in the air to oxidize the solution (overnight). To this, 2.7N HCl was added, and the absorbance at 408 nm was measured. A standard curve was generated using standard protoporphyrin IX, and the PPO activity was measured by calibration of protoporphyrin IX using the standard curve of protoporphyrin IX.
The final concentration of each herbicide was as follows: […]

Question: B1 was tested. Which “Activity (%)” value did it give?
Answer: 30%

Question: For B2, which “Activity (%)” value is on record?
Answer: 59%

Question: How did the “Activity (%)” value turn out when B3 was run?
Answer: 78%

Question: Which “Activity (%)” value does the source give for B4 here?
Answer: 63%
